Laboratory results taken from patent publication US20180327746, “Alpha-AMYLASE-BINDING NUCLEIC ACID MOLECULE AND USE THEREOF” (NEC Solution Innovators, Ltd., published 2018).

Assays:
[1] = biological target: T1, alpha-amylase (Homo sapiens, UniProt P0DUB6 P0DUB6:16-511); assay: SPR; SPR buffer with 1 mM MgCl2, pH 7.4; Chi2 31.8; text says all Kd 17 nM or less; conditions: tags: none stated; commercial human alpha-amylase, Lee Biosolutions; label: 3' poly(dA)20 captured on biotin-poly(dT)20
T1 sequence: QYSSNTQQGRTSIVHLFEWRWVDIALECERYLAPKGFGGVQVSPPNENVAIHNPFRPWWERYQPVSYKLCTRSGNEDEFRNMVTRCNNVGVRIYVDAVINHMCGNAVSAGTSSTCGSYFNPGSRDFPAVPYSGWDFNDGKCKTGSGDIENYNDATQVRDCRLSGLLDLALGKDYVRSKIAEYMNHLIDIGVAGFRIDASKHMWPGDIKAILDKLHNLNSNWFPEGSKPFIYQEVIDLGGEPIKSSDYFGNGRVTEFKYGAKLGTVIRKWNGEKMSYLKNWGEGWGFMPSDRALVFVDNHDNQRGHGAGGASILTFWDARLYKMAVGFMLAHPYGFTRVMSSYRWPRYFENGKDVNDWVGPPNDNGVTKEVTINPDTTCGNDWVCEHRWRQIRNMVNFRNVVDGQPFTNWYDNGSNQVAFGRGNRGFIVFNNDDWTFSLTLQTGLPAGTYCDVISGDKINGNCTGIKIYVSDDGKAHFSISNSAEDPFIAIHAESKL
Method: Then, the poly(dA)-added aptamer at 200 nmol/L was injected to the flow cell of the chip using an SPR buffer at a flow rate of 25 μL/min for 80 seconds, and the binding was allowed to proceed until the signal intensity reached about 800 RU. […] Subsequently, the specimen was injected using the SPR buffer at a flow rate of 50 μL/min for 120 seconds, followed by washing performed by flowing the SPR buffer under the same conditions for 300 seconds. The concentration of the human α-amylase in the specimen was set to 400 nmol/L. Signal intensity measurement was performed concurrently with the injection of the specimen and the washing with the SPR buffer. With 0 seconds being the start of the injection, the mean value of signal intensities from 115 seconds to 125 seconds was determined. […] Then, the value (B/A) obtained by dividing the protein binding measured value (B) by the aptamer immobilization measured value (A) was determined as a relative value (Relative Unit).
(§1) The binding ability of the aptamers was analyzed by SPR in the same manner as in Example 1, except that the concentration of the α-amylase in the specimen was set to a plurality of values. The concentration was set to 20 nmol/L, 10 nmol/L, 5 nmol/L, 2.5 nmol/L, and 1.25 nmol/L. Then, from the results obtained by the SPR analysis, the kinetic parameter and the chi-squared value were calculated.

[2] = biological target: T1, alpha-amylase; assay: capillary electrophoresis; 200 nM aptamer, 2 uM amylase, 40 mM HEPES pH 7.5, 1 mM MgCl2; conditions: tags: none stated; commercial human alpha-amylase, Lee Biosolutions; label: 5' TYE665
Method: (§2) Reaction solutions containing the labeled aptamer (SEQ ID NO: 1) were prepared. Each of the reaction solutions was subjected to CAE under the following conditions. The reaction solution was caused to migrate while separating the components therefrom, and the fluorescence at a maximum absorption wavelength (665 nm) of the fluorescent substance was measured. As the reaction solutions, the following four types of reaction solutions were used: a reaction solution 1 containing the labeled aptamer only; a reaction solution 2 containing the labeled aptamer and the α-amylase; a reaction solution 3 containing the labeled aptamer and the saliva; and a reaction solution 4 containing the labeled aptamer as the negative control and the saliva. In each of the reaction solutions, the concentration of the labeled aptamer was 200 nmol/L. In the reaction solution 2, the concentration of the α-amylase was 2 μmol/L. In the reaction solutions 3 and 4, the concentration of the saliva was 10%. The reminder of each of the reaction solutions was a buffer solution. The composition of the buffer solution was as follows: 40 mmol/L HEPES (pH 7.5), 125 mmol/L NaCl, 5 mmol/L KCl, and 1 mmol/L MgCl₂.

[3] = biological target: T2, chromogranin A (CgA) (Homo sapiens, UniProt P10645 P10645:19-457); assay: capillary electrophoresis specificity control; conditions: tags: N-terminal His-tag; full length, Creative BioMart CHGA-26904TH; label: 5' TYE665
T2 sequence: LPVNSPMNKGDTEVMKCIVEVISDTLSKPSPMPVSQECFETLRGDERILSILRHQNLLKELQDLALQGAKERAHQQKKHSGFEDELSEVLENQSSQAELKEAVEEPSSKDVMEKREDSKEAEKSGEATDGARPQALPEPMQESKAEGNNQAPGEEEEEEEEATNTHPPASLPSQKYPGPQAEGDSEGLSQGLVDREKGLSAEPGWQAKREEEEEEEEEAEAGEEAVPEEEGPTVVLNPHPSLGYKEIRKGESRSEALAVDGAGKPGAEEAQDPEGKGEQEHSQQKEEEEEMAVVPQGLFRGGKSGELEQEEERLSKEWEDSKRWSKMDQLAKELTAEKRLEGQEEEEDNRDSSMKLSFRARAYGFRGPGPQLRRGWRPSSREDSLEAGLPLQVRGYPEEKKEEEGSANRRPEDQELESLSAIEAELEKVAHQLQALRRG
Method: as §2
Preparation of the reaction solution 2 and the binding ability analysis by CAE were carried out in the same manner as in the above item (3), except that the labeled aptamers (SEQ ID NOs: 1, 2, 3, and 19) were used. Further, in order to examine the specificity of the labeled aptamers to the α-amylase, the binding ability analysis by CAE was performed in the same manner as in the case where the above-described reaction solution 2 was used, except that, instead of the α-amylase, human chromogranin A (CgA, recombinant full length protein, Creative BioMart, #CHGA-26904TH) or human IgA (secretory, Biomedicals, LLC-Cappel Products, #55905), each having a His-tag fused at the N terminus were used.

[4] = biological target: T1, alpha-amylase; assay: SPR; SPR buffer with 1 mM MgCl2, pH 7.4; Chi2 23.87; conditions: tags: none stated; commercial human alpha-amylase, Lee Biosolutions; label: 3' poly(dA)20 captured on biotin-poly(dT)20
Method: (§3) Biotinylated poly(dT) at 5 μmol/L was injected to a flow cell of the sensor chip using ultrapure water (DDW), and the binding was allowed to proceed until the signal intensity (RU: Resonance Unit) reached about 900 RU. The biotinylated poly(dT) was prepared by biotinylating the 5′ end of 20-mer deoxythymidine. Then, the poly(dA)-added aptamer at 200 nmol/L was injected to the flow cell of the chip using an SPR buffer at a flow rate of 25 μL/min for 80 seconds, and the binding was allowed to proceed until the signal intensity reached about 800 RU. […] With 0 seconds being the start of the injection, the mean value of signal intensities from 115 seconds to 125 seconds was determined. […] Then, the value (B/A) obtained by dividing the protein binding measured value (B) by the aptamer immobilization measured value (A) was determined as a relative value (Relative Unit).
as §1

[5] = biological target: T1, alpha-amylase; assay: SPR; SPR buffer with 1 mM MgCl2, pH 7.4; Chi2 3.26; conditions: tags: none stated; commercial human alpha-amylase, Lee Biosolutions; label: 3' poly(dA)20 captured on biotin-poly(dT)20
Method: as §3, §1

[6] = biological target: T1, alpha-amylase; assay: SPR; SPR buffer with 1 mM MgCl2, pH 7.4; Chi2 5.05; conditions: tags: none stated; commercial human alpha-amylase, Lee Biosolutions; label: 3' poly(dA)20 captured on biotin-poly(dT)20
Method: as §3, §1

[7] = biological target: T1, alpha-amylase; assay: SPR; SPR buffer with 1 mM MgCl2, pH 7.4; Chi2 10.58; conditions: tags: none stated; commercial human alpha-amylase, Lee Biosolutions; label: 3' poly(dA)20 captured on biotin-poly(dT)20
Method: as §3, §1

[8] = biological target: T1, alpha-amylase; assay: SPR; SPR buffer with 1 mM MgCl2, pH 7.4; Chi2 3.85; conditions: tags: none stated; commercial human alpha-amylase, Lee Biosolutions; label: 3' poly(dA)20 captured on biotin-poly(dT)20
Method: as §3, §1

[9] = biological target: T1, alpha-amylase; assay: SPR; SPR buffer with 1 mM MgCl2, pH 7.4; Chi2 4.3; conditions: tags: none stated; commercial human alpha-amylase, Lee Biosolutions; label: 3' poly(dA)20 captured on biotin-poly(dT)20
Method: as §3, §1

[10] = biological target: T1, alpha-amylase; assay: SPR; SPR buffer with 1 mM MgCl2, pH 7.4; Chi2 4.17; conditions: tags: none stated; commercial human alpha-amylase, Lee Biosolutions; label: 3' poly(dA)20 captured on biotin-poly(dT)20
Method: as §3, §1

[11] = biological target: T1, alpha-amylase; assay: SPR; SPR buffer with 1 mM MgCl2, pH 7.4; Chi2 24.55; conditions: tags: none stated; commercial human alpha-amylase, Lee Biosolutions; label: 3' poly(dA)20 captured on biotin-poly(dT)20
Method: as §3, §1

B1: AML1243KR8m3 (ssDNA)
DNA: GGATACCTTAACGCCGCCTATTGCGAGGTGTGGCTAGTCGTTATAGGTCCACCGAGTTGCACCCGTCTCGAAATCAAAAAAAAAAAAAAAAAAAA
modifications: KS9 modified T (formula 1) at underlined T, i.e. T 3' of the 5' primer region
For B1, the Kd [1] was 19.9 nM.

B2: TYE665-AML1243KR8m1 (ssDNA)
DNA: GGATACCTTAACGCCGCCTATTGTGAACGACGTGAATAGTGTTTGTGGGTCCGGAGTTGCACCCGTCTCGAAATC
modifications: KS9 modified T (formula 1) at underlined T, i.e. T 3' of the 5' primer region
B2: binds [2]; no binding [3].

B3: AML1243KR8m2 (ssDNA)
DNA: GGATACCTTAACGCCGCCTATTGCTATGAGTAGTGTTTGTAGGTCTGGCATGCGAGTTGCACCCGTCTCGAAATCAAAAAAAAAAAAAAAAAAAA
modifications: KS9 modified T (formula 1) at underlined T, i.e. T 3' of the 5' primer region
B3 showed a Kd [4] of 2.6 nM.

B4: AML1243KR8m1s58_FW_s20 (ssDNA)
DNA: TACCTTAACGCCGCCTATTGTGAACGACGTGAATAGTGTTTGTGGGTCCGGAGTTAAAAAAAAAAAAAAAAAAAA
modifications: KS9 modified T (formula 1) at underlined T, i.e. T 3' of the 5' primer region
Binder B4 has a Kd [5] of 0.707 nM.

B5: Amy_258KK10R8m2 (ssDNA)
DNA: GGTTACGCCCAGGACACATTTCATTGATGGCATACTAAGGGTCGAGGAATTCGTAAGCTCGGTCTCCTCGGATAATCAAAAAAAAAAAAAAAAAAAA
modifications: KK10 modified T (formula 2) at double-underlined T, i.e. T 3' of the 5' primer region
B5 gave a Kd [6] of 2.3 nM.

B6: AML1243KR8m1_KS9-3_mini (ssDNA)
DNA: GTGAACGACGTGAATAGTGTTTGTGGGTCCGGAGTTAAAAAAAAAAAAAAAAAAAA
modifications: KS9 modified T (formula 1) at all T
Work on B6 yielded a Kd [7] of 0.607 nM.

B7: Amy_258KK10R8m1 (ssDNA)
DNA: GGTTACGCCCAGGACACATTTCAAAAGATGATGGCATACGTAAAGGGTCGAGGTAAGCTCGGTCTCCTCGGATAATCAAAAAAAAAAAAAAAAAAAA
modifications: KK10 modified T (formula 2) at double-underlined T, i.e. T 3' of the 5' primer region
In the case of B7, the Kd [8] is reported as 2.72 nM.

B8: AML1243KR8m1 (ssDNA)
DNA: GGATACCTTAACGCCGCCTATTGTGAACGACGTGAATAGTGTTTGTGGGTCCGGAGTTGCACCCGTCTCGAAATCAAAAAAAAAAAAAAAAAAAA
modifications: KS9 modified T (formula 1) at underlined T, i.e. T 3' of the 5' primer region
With B8 the Kd [9] was 0.805 nM.

B9: AML1243KR8m1s65_FW_s20 (ssDNA)
DNA: TACCTTAACGCCGCCTATTGTGAACGACGTGAATAGTGTTTGTGGGTCCGGAGTTGCACCCGAAAAAAAAAAAAAAAAAAAA
modifications: KS9 modified T (formula 1) at underlined T, i.e. T 3' of the 5' primer region
B9 showed a Kd [10] of 0.68 nM.

B10: AML1243KR8m2s49Fw_s15 (ssDNA)
DNA: TAACGCCGCCTATTGCTATGAGTAGTGTTTGTAGGTCTGGCAAAAAAAAAAAAAAAAAAAA
modifications: KS9 modified T (formula 1) at underlined T, i.e. T 3' of the 5' primer region
For B10, the Kd [11] was 2.66 nM.
